Measurements published in the DeepSol protein solubility set.

test: soluble on expression in E. coli; label from the status in PepcDB or PDB records

Sequence	soluble on expression in E. coli
MGCLLFLLLWALLQAWGSAEVPQRLFPLRCLQISSFANSSWTRTDGLAWLGELQTHSWSNDSDTVRSLKPWSQGTFSDQQWETLQHIFRVYRSSFTRDVKEFAKMLRLSYPLELQVSAGCEVHPGNASNNFFHVAFQGKDILSFQGTSWEPTQEAPLWVNLAIQVLNQDKWTRETVQWLLNGTCPQFVSGLLESGKSELKKQVKPKAWLSRGPSPGPGRLLLVCHVSGFYPKPVWVKWMRGEQEQQGTQPGDILPNADETWYLRATLDVVAGEAAGLSCRVKHSSLEGQDIVL	soluble
MGHHHHHHSHELLVVGSRPELGRWEPRGAVRLRPAGTAAGDGALALQEPGLWLGEVELAAEEAAQDGAEPGRVDTFWYKFLKREPGGELSWEGNGPHHDRCCTYNENNLVDGVYCLPIGHWIEATGHTNEMKHTTDFYFNIAGHQAMHYSRILPNIWLGSCPRQVEHVTIKLKHELGITAVMNFQTEWDIVQNSSGCNRYPEPMTPDTMIKLYREEGLAYIWMPTPDMSTEGRVQMLPQAVCLLHALLEKGHIVYVHCNAGVGRSTAAVCGWLQYVMGWNLRKVQYFLMAKRPAVYI	not soluble
MGSDKIHHHHHHMEIKKGTWIIKKGFAEMFKGGVIMDVTSAEQAKIAEEAGAVAVMALERVPADIRKEGGVARMASIAKIREIMEAVSIPVMAKVRIGHIAEAKILEELGVDFIDESEVLTPADDRFHINKHEFKVPFVCGARDLGEALRRIAEGAAMIRTKGEAGTGNVVEAVKHMRRVMEQIKQVTKMEDEELVAYGKEIGAPVELLREVKRLGRLPVVNFAAGGVATPADAALMMMLGADGVFVGSGIFKSKDPRKMAKAMVLAVTYWDNPRILLKISEDIGEPMRGLDVEELEVRMQERGW	not soluble
MKPSSPSRSKGHAKARRKTREELNQEARDRKRQKKRRGHAPGSRAAGGNNTSGSKGQNAPKDPRIGSKTPIPLGVTEKVTKQHKPKSEKPMLSPQAELELLETDERLDALLERLEAGETLSAEEQSWVDAKLDRIDELMQKLGLSYDDDEEEEEDEKQEDMMRLLRGN	not soluble
MGSDKIHHHHHHDFEELNTNPFEMTDEMGIRDGVAVGGAVMAMQRAVITVGTQADDTEAINQYQVAYNLSADSWSGFFGQNNNWYSGSNNTTYYLQDNWVAATYTNSYTTLLSSWKKIKQESEKNETPEIFALAQILKISAWHKTLESFGPIPYTHAGEPALVIPFDSEQVAFNAMFADLTAAIEALTVRAEQGATIVADYDAVYAGDTRKWVKYANSLMLRLAMRISYADETTAQKYARQALNHPFGVMTSKSDEAQMSTGAGMVFRNNIDWLANQYNECRMGSSMFSYLLGYQDPRLSAYFEASPSAYAVAAFDGKNYQAVPPGNANQQNTIYTDFSKPNITSNTPTYWMRASEVYFLRAEAALRWGSEFGDAEALYEQGVATSFDENGISSSVDDYLAFGLTPIAHNMRASYYSYNAAAPTTATPAFSGGTEQKLEKIMIQKWIALYPNGHEAWTEWRRTGYPKLNQVQTNRGQGVTREGGIRRMVYPVSFYQSAEDRANYEEALKLLGGLDKDKATTQLWWDCKNKIY	not soluble
SQACVMPSLLQNMVGFSEVARATQTDPRPQRPAPPQPQVATMPWSQPGSWARRGFVPAWSQPPALSQQKLARQCCLGPWAGLIPHQQPLPRHPPQASSFPTTAGLWPPAFAQCGTLGHRAIYLVLWPPFLGPWLSSLQEKPHFIPQLPPACTPHPVPWWGLSIPGSKGRRSAPFLPLSLGRLGAQLWKHHPATHLSCGSRFFGGS	soluble
MSLAAPTLTGGKLTVGIQGTHAELGVLLYPGVQMAAVHGLSDLFEVANRIAGEQPQAQLPRLRVSHWQASGELPPVRVHDSLAEAPGALLAVLIPPSLAGFSSHQSSAALMDWLRQQHAAGATLGGVCVGSILLAESGLLDGRSATTHWTSAQAFAERYPQVRLEADKPIVDDGDLITSAGLMAWAELGLRLVNRLLGPSIASATARFLVMEHSASASQCGSNFAPILSHGDGAILKLQHWLQANGAVDVSLPVMAQQAGLEPRTLLRRFRAATGLKPTQYCQHLRVGKARELLEFTNGSIDHIAWTVGYQDPATFRSLFRKITGLAPSEYRNRFGATSTAASREGHHHHHH	soluble
